Assay results published in paper PMC8642555 (Nature Communications, 2021).

Legend:
[1] = biological target: FcεRI (Homo sapiens) (UniProt P12319); conditions: cited from earlier work
[2] = biological target: IgE; test: binding studies with purified scFvs (method not given; Supplementary Fig. 3c); conditions: read off a plot; for koff: parent: est. 2.5e-3; for kon: parent: est. 1.0e6
[3] = biological target: disulfide locked IgE-Fc2–4(G335C):FcεRIα(W156C) complex (UniProt P12319); test: BLI; single cycle kinetics; locked complex captured on Ni-NTA tips, coupled with EDC/NHS, nickel chelated with EDTA; anti-IgE agents in a twofold serial dilution from 1600 nM to 100 nM; 2:1 SCK binding model (Clamp-XP)
[4] = biological target: IgE; test: binding kinetics (method not named in the legend or citing paragraphs; Supplementary Fig. 1e); conditions: parent: est. 2.8e-3 s-1; read off a plot
[5] = biological target: bIgE-Fc2–4:FcεRIα-Ova complex (UniProt P12319); test: bead-based disruption assay; conditions: parent: est. 20 µM; read off a plot
bIgE-Fc2–4:FcεRIα-Ova complex, sequence (P12319 whole entry, looked up, tested part not stated, one chain of several): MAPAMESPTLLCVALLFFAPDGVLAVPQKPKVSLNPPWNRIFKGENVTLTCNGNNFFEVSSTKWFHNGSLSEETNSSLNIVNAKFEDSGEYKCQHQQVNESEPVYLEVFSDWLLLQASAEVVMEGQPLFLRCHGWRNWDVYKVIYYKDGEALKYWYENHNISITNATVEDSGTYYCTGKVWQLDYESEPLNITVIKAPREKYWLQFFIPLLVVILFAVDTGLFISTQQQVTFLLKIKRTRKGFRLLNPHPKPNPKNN

[6] = biological target: T1, biotinylated IgE-Fc2–4 (human, UniProt P01854 106-427, biotin (Sulfo-NHS-LC-Biotin labelling)); test: BLI; Octet-Red 96; biotin-labeled human IgE immobilised on streptavidin tips (~0.5 nm); serial dilution of anti-IgE agents from the lowest concentration (single-cycle kinetics); 1:1 SCK binding model; conditions: both partners purified
T1 construct: human IgE heavy chain constant region, Fc fragment with the domains Cε2 to Cε4 (IgE-Fc2–4); PDB 2Y7Q is a cited IgE-Fc2–4:FcεRIα structure and may be another construct; also called bIgE-Fc2–4; biotin-IgE-Fc2–4

[7] = biological target: Biotinylated full length recombinant IgE (human) (UniProt P01854); test: BLI; biotinylated full length recombinant IgE on streptavidin (SA) tips; single cycle kinetics, five 100 s associations, four 100 s dissociations and a final 600 s dissociation; analyte in two-fold serial dilutions from 50 nM to 1.56 nM; Octet Red 96; 1:1 SCK model in BiaEvaluation 3.0
Biotinylated full length recombinant IgE (human), sequence (P01854 whole entry, looked up): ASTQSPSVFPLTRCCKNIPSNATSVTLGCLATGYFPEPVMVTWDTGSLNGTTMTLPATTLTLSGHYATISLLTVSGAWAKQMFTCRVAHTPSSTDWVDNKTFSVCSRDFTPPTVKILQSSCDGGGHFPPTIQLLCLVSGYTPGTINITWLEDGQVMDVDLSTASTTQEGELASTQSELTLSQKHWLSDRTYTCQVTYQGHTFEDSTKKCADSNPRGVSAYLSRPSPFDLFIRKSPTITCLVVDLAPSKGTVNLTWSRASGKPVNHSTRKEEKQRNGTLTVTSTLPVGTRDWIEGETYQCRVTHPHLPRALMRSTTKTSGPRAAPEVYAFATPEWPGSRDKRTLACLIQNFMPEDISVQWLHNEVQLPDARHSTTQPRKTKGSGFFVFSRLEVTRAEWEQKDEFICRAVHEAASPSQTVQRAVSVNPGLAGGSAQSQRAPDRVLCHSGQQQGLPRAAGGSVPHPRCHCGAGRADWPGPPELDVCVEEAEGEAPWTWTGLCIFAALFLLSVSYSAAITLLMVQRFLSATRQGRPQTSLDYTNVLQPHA

[8] = biological target: T2, biotinylated-IgE-Fc2–4 (human, biotin (Sulfo-NHS-LC-Biotin)); test: BLI; Octet-Red 96; biotin-labeled human IgE on streptavidin tips (~0.5 nm); serial dilution of anti-IgE agents from the lowest concentration (single cycle kinetics); 1:1 SCK model; conditions: both partners purified
T2 construct: IgE heavy chain constant region, human, Fc fragment with the domains Cε2, Cε3 and Cε4; the results speak of the KD for free IgE-Fc2–4; also called bIgE-Fc2–4; biotin-IgE-Fc2–4; source: labelled with Sulfo-NHS-LC-Biotin
T2 chain: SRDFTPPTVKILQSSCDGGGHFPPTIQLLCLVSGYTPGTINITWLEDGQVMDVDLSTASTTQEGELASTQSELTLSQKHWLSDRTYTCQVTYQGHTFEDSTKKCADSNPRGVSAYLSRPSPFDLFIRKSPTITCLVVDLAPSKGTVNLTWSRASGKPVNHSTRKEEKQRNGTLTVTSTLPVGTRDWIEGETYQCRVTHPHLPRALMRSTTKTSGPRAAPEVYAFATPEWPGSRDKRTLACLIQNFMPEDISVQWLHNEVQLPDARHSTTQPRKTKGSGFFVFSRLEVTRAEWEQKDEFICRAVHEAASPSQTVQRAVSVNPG

[9] = biological target: T3, biotinylated IgE-Fc2–4 (Homo sapiens, UniProt P01854, biotin (Sulfo-NHS-LC-Biotin labelling)); test: BLI; Octet-Red 96; biotin-labeled human IgE immobilised on streptavidin tips (~0.5 nm); serial dilution of anti-IgE agents from the lowest concentration (single-cycle kinetics); 1:1 SCK binding model; conditions: both partners purified
T3 construct: human IgE heavy chain constant region, Fc fragment with the domains Cε2 to Cε4 (IgE-Fc2–4); PDB 2Y7Q is a cited IgE-Fc2–4:FcεRIα structure and may be another construct; also called bIgE-Fc2–4; biotin-IgE-Fc2–4

[10] = biological target: T2, biotinylated-IgE-Fc2–4; test: bead-based disruption assay (flow cytometry of beads); FcεRIα-Ova coupled polystyrene beads loaded with 500 nM biotin-IgE-Fc2–4 and washed; serial dilution of anti-IgE agent, 30 min, room temperature, 900 rpm; fixed; remaining bIgE-Fc2–4 stained with PE/Cy5-streptavidin; ID50 from dose response fit; conditions: both partners purified

FcεRI (Homo sapiens), sequence (P12319 26-257): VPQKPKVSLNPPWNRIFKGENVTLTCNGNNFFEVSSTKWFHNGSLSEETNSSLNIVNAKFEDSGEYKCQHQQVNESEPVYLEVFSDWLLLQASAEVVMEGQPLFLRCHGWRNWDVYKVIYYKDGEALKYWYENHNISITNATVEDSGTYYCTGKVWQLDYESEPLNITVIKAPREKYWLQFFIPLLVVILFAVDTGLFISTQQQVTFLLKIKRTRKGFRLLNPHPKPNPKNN

In the case of IgE (from UniProt P01854), the Kd [1] is given as 0.1 nM.

For “omalizumab single chain variable fragment (scFv) VH:G15D; VH:I52V; VL:Y31S”, the koff [2] was 0.002 s⁻¹ and the kon [2] was 1e+06 M⁻¹ s⁻¹.

“omalizumab single chain variable fragment (scFv) VH:S28N; VH:T53K; VH:D55S; VH:S57E; VH:N59K; VL:Q27K; VL:S28P; VL:Y31G; VL:D32E; VL:M37L” showed a koff [2] of 0.00026 s⁻¹ and a kon [2] of 1.7e+06 M⁻¹ s⁻¹.

Molecule “HAE scFv (high-affinity omalizumab variant)” has a KD of the high affinity site (2:1 model) [3] of 2.86 nM and a KD of the low affinity site (2:1 model) [3] of 25.8 nM.

In the case of “omalizumab single chain variable fragment (scFv) scFvCC (cysteines for a disulfide bond at the VH:VL interface; positions not printed)”, the koff [4] is reported as 0.013 s⁻¹ and the other: ID50 [5] is reported as 40000 nM.

“omalizumab single chain variable fragment (scFv) VH:G15D; VH:A41T; VH:I52V; VH:D74G; VH:R98K; VH:S100N; VH:H101N; VL:Q27K; VL:Y31S; VL:K46R” gave a koff [2] of 0.0016 s⁻¹ and a kon [2] of 2e+06 M⁻¹ s⁻¹.

B1: DARPin E2_79 (designed binder)
chain: MRGSHHHHHHGSDLGKKLLEAARAGQDDEVRILTANGADVNANDYWGHTPLHLAAMLGHLEIVEVLLKNGADVNATGNTGRTPLHLAAWADHLEIVEVLLKHGADVNAQDKFGKTAFDISIDNGNEDLAEILQKL
For B1, the Kd [6] was 1.18 nM, the koff [6] was 0.00212 s⁻¹ and the kon [6] was 1.79e+06 M⁻¹ s⁻¹. The Kd [7] was 1.18 nM, the koff [7] was 0.00212 s⁻¹ and the kon [7] was 1.79e+06 M⁻¹ s⁻¹.

B2: clone 16 scFv (scFv, V domains shown)
VH: EVQLVESGGGLVQPDGSLRLSCAVSGYNITSGYSWNWIRQTPGKGLEWVASVTYDGSTNYNPSVKGRITISRDGSKNTFYLQMNSLRAEDTAVYYCAKGNNYFGHWHFAVWGQGTLVTVSS
VL: DIQLTQSPSSLSASVGDRVTITCRASKPVDGEGDSYLNWYQQKPGKAPKLLIYAASYLESGVPSRFSGSGSGTYFTLTISSLQPEDFATYYCQQSHEDPYTFGQGTKVEIK
notes: VH of clone 16, from a shuffled library of C02 and HAE; most clones used the C02-VH with sporadic further mutations; VL of clone 16, from a shuffled library of C02 and HAE; most clones used the HAE-VL with sporadic further mutations
B2: binds [8].

B3: clone 7 scFv (C02 with VL D74H) (scFv, V domains shown)
VH: EVQLVESGGGLVQPDGSLRLSCAVSGYNITSGYSWNWIRQTPGKGLEWVASVTYDGSTNYNPSVKGRITISRDGSKNTFYLQMNSLRAEDTAVYYCAKGNNYFGHWHFAVWGQGTLVTVSS
VL: DIQLTQSPSSLSASVGDRVTITCRASKSVDSDGDSYMNWYQQKPGRAPKLLIYAASYLESGVPSRFSGSGSGTHFTLTISSLQPEDFATYYCQQSHEDPYTFGQGTKVEIK
notes: as the scFv of C02 (Sm8), identical to it beyond D74H in the E-strand of the VL domain; cryo-EM structure with the locked IgE-Fc2–4:FcεRIα complex solved here; D74 counts on the VL domain
Molecule B3 has a Kd [9] of 0.581 nM, a koff [9] of 0.00104 s⁻¹ and a kon [9] of 1.79e+06 M⁻¹ s⁻¹.

B4: clone 7 scFv (scFv, V domains shown)
VH: EVQLVESGGGLVQPDGSLRLSCAVSGYNITSGYSWNWIRQTPGKGLEWVASVTYDGSTNYNPSVKGRITISRDGSKNTFYLQMNSLRAEDTAVYYCAKGNNYFGHWHFAVWGQGTLVTVSS
VL: DIQLTQSPSSLSASVGDRVTITCRASKSVDSDGDSYMNWYQQKPGRAPKLLIYAASYLESGVPSRFSGSGSGTHFTLTISSLQPEDFATYYCQQSHEDPYTFGQGTKVEIK
notes: VH as the VH of C02; VL as the VL of C02 with D74H in the E-strand; Identical to C02 beyond D74H
For B4, the “fold increase of ID50 against C02” value [10] was 5 fold.

B5: clone A4 scFv (scFv, V domains shown)
VH: EVQLVESGGGLVQPDGSLRLSCAVSGYNITSGYSWNWIRQTPGKGLEWVASVTYDGSTNYNPSVKGRITISRDGSKNTFYLQMNSLRAEDTAVYYCAKGNNYFGHWHFAVWGQGTLVTVSS
VL: DIQLTQSPSSLSASVGDRVTITCRASKPVDGEGDSYLNWYQQKPGKAPKLLIYAASYLESGVPSRFSGSGSGTGFTLTISSLQPEDFATYYCQQSHEDPYTFGQGTKVEIK
notes: VH of clone A4, from a shuffled library of C02 and HAE; most clones used the C02-VH with sporadic further mutations; VL of clone A4, from a shuffled library of C02 and HAE; most clones used the HAE-VL with sporadic further mutations
B5: binds [8].

B6: clone 16 scFv (shuffled C02/HAE omalizumab variant with VL D74Y) (scFv, V domains shown)
VH: EVQLVESGGGLVQPDGSLRLSCAVSGYNITSGYSWNWIRQTPGKGLEWVASVTYDGSTNYNPSVKGRITISRDGSKNTFYLQMNSLRAEDTAVYYCAKGNNYFGHWHFAVWGQGTLVTVSS
VL: DIQLTQSPSSLSASVGDRVTITCRASKPVDGEGDSYLNWYQQKPGKAPKLLIYAASYLESGVPSRFSGSGSGTYFTLTISSLQPEDFATYYCQQSHEDPYTFGQGTKVEIK
notes: from a shuffled library of C02 (Sm8) and HAE (Sm7); D74Y in the E-strand of VL; D74 counts on the VL domain
Work on B6 yielded a Kd [9] of 0.308 nM, a koff [9] of 0.000448 s⁻¹ and a kon [9] of 1.45e+06 M⁻¹ s⁻¹.

B7: clone A4 scFv (shuffled C02/HAE omalizumab variant with VL D74G) (scFv, V domains shown)
VH: EVQLVESGGGLVQPDGSLRLSCAVSGYNITSGYSWNWIRQTPGKGLEWVASVTYDGSTNYNPSVKGRITISRDGSKNTFYLQMNSLRAEDTAVYYCAKGNNYFGHWHFAVWGQGTLVTVSS
VL: DIQLTQSPSSLSASVGDRVTITCRASKPVDGEGDSYLNWYQQKPGKAPKLLIYAASYLESGVPSRFSGSGSGTGFTLTISSLQPEDFATYYCQQSHEDPYTFGQGTKVEIK
notes: from a shuffled library of C02 (Sm8) and HAE (Sm7); D74G in the E-strand of VL; D74 counts on the VL domain
In the case of B7, the Kd [9] is reported as 0.377 nM, the koff [9] is reported as 0.000565 s⁻¹ and the kon [9] is reported as 1.5e+06 M⁻¹ s⁻¹.
